Experiments:
[1] = molecular target: WT SARS-CoV-2 spike protein, plate-coated (MSD V-Plex) (SARS-CoV-2, UniProt P0DTC2 14-1208); assay: MSD competition vs labelled ACE2
[2] = molecular target: T1, full length wild type SARS-CoV-2 spike glycoprotein on pseudotyped lentivirus (SARS-CoV-2, UniProt P0DTC2 14-1273); assay: cell-based or functional assay
[3] = molecular target: T1, full length wild type SARS-CoV-2 spike …; assay: cell-based or functional assay; remark: listed apart in the source

B1: Etesevimab (antibody, V domains shown)
VH: EVQLVESGGGLVQPGGSLRLSCAASGFTVSSNYMSWVRQAPGKGLEWVSVIYSGGSTFYADSVKGRFTISRDNSMNTLFLQMNSLRAEDTAVYYCARVLPMYGDYLDYWGQGTLVTVSS
VL: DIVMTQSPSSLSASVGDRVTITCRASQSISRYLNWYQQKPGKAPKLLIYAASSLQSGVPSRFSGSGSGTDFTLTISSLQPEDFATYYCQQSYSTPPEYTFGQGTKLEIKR
IC50 [1]: 0.51 nM

B2: REGN10933 (Casirivimab) (antibody, V domains shown)
VH: QVQLVESGGGLVKPGGSLRLSCAASGFTFSDYYMSWIRQAPGKGLEWVSYITYSGSTIYYADSVKGRFTISRDNAKSSLYLQMNSLRAEDTAVYYCARDRGTTMVPFDYWGQGTLVTVSS
VL: DIQMTQSPSSLSASVGDRVTITCQASQDITNYLNWYQQKPGKAPKLLIYAASNLETGVPSRFSGSGSGTDFTFTISGLQPEDIATYYCQQYDNLPLTFGGGTKVEIKR
%-inhibition EC50 (M), pseudovirus neutralization [2]: 1.1e-10 M | RLU EC50 (M), pseudovirus neutralization [2]: 1e-10 M | Pseudovirus Neutralization (IC50, nM) [3]: 0.05 nM

B3: Bamlanivimab (antibody, V domains shown)
VH: QVQLVQSGAEVKKPGSSVKVSCKASGGTFSNYAISWVRQAPGQGLEWMGRIIPILGIANYAQKFQGRVTITADKSTSTAYMELSSLRSEDTAVYYCARGYYEARHYYYYYAMDVWGQGTAVTVSS
VL: not shown
Bmax (% inhibition) [2]: 100% | Pseudovirus Neutralization (IC50, nM) [3]: 2.29 nM

B4: REGN10987 (Imdevimab) (antibody, V domains shown)
VH: QVQLVESGGGVVQPGRSLRLSCAASGFTFSNYAMYWVRQAPGKGLEWVAVISYDGSNKYYADSVKGRFTISRDNSKNTLYLQMNSLRTEDTAVYYCASGSDYGDYLLVYWGQGTLVTVSS
VL: QSALTQPASVSGSPGQSITISCTGTSSDVGGYNYVSWYQQHPGKAPKLMIYDVSKRPSGVSNRFSGSKSGNTASLTISGLQSEDEADYYCNSLTSISTWVFGGGTKLTVLR
%-inhibition EC50 (M), pseudovirus neutralization [2]: 2.9e-09 M | Bmax (% inhibition) [2]: 116% | RLU EC50 (M), pseudovirus neutralization [2]: 2.9e-09 M | Pseudovirus Neutralization (IC50, nM) [3]: 4.76 nM

— patent US20240327815A1 (Zymeworks, published 2024)
